Read-outs that look alike come from different tables or passages of the source.
T1: MukB (E. coli, UniProt P22523 1-1486)
T1 chain: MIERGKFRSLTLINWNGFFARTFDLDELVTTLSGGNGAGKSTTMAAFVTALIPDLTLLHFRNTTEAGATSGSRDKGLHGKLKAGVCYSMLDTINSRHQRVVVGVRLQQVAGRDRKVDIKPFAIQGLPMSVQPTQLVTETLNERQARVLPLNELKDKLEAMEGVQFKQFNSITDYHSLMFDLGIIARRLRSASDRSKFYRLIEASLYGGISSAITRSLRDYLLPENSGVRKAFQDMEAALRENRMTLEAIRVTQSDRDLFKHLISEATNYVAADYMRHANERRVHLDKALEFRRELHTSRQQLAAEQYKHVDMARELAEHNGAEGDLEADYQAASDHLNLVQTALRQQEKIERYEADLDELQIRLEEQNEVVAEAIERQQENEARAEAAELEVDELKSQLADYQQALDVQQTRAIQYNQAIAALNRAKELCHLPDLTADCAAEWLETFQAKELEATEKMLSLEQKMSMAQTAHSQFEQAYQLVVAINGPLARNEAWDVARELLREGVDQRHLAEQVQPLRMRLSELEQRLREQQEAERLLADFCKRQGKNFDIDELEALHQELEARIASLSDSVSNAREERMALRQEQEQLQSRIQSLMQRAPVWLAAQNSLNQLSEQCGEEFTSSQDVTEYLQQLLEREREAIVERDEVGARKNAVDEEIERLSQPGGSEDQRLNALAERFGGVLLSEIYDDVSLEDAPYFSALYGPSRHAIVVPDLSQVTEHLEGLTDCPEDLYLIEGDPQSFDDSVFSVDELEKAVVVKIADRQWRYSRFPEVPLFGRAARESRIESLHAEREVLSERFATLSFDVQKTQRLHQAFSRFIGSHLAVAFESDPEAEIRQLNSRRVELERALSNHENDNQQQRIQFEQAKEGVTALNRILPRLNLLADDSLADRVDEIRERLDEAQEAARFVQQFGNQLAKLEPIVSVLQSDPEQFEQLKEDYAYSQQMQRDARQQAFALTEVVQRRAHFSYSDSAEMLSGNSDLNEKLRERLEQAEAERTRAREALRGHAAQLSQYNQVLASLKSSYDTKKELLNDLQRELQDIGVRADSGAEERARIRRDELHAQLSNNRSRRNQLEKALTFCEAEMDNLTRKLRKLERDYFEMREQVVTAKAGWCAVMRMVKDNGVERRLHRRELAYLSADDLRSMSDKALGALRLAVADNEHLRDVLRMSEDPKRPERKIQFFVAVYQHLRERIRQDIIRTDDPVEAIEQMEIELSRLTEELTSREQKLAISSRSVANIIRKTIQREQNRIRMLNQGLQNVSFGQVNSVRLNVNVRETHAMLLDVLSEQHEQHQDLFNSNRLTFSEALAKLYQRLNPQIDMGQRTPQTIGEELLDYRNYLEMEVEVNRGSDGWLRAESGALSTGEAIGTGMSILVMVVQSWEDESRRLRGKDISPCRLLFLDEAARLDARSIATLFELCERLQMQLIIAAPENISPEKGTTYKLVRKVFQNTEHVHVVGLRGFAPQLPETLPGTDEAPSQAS


Key:
[1] = molecular target: T1, MukB; assay: FP
[2] = molecular target: T1, MukB

Binder | Kd [1] [nM] | Kd [2] [nM]
Cy5 labelled FC2 (domain or fragment, Cy5 label (site not stated)) AIDMDKNRVFAQRLRQSVQTYFDEPWALTYANADRLLDMRDEEMALRDEEVTGELPEDLEYEEFNEIREQLAAIIEEQLAVYKTRQVPLDLGLVVREYLSQYPRARHFDVARIVIDQAVRLGVAQADFTGLPAKWQPINDYGAKVQAHVIDKY | 23 | 
Cy5 labelled FN2 (domain or fragment, Cy5 label (site not stated)) MSEFSQTVPELVAWARKNDFSISLPVDRLSFLLAVATLNGERLDGEMSEGELVDAFRHVSDAFEQTSETIGVRANNAINDMVRQRLLNRFTSEQAEGNAIYRLTPLGIGITDYYIRQREFSTLRLSMQLSIVAGELKRAADAAEEGGDEFHWHRNVYAPLKYSVAEIFDSIDLTQRLMDEQQQQVKDDIAQLLNKDWRAAISSCELLLSETSGTLRELQDTLEAAGDKLQANLLRIQDATMTHDDLHFVDRLVFDLQSKLDRIISWGQQSIDLWIGYDRHVHKFIRT |  | 26

Other lines, results leading:

Kd [1] [nM] | Kd [2] [nM] | Binder
21 |  | Cy5 labelled FN3 (domain or fragment, Cy5 label (site not stated)) REFSTLRLSMQLSIVAGELKRAADAAEEGGDEFHWHRNVYAPLKYSVAEIFDSIDLTQRLMDEQQQQVKDDIAQLLNKDWRAAISSCELLLSETSGTLRELQDTLEAAGDKLQANLLRIQDATMTHDDLHFVDRLVFDLQSKLDRIISWGQQSIDLWIGYDRHVHKFIRT
 | 10 | Cy5 labelled FN10 (domain or fragment, Cy5 label (site not stated)) MSEFSQTVPELVAWARKNDFSISLPVDRLSFLLAVATLNGERLDGEMSEGELVDAFRHVSDAFEQTSETIGVRANNAINDMVRQRLLNRFTSEQAEGNAIYRLTPLGIGITDYYIRQREFSTLRLSMQLSIVAGELKRAADAAEEGGDEFHWHRNVYAPLKYSVAEIFDSIDLTQRLMDEQQQQVKDDIAQLLNKDWRAAISSCELLLSETSGTLRELQDTLEAAGDKLQANLLRIQDATMTHDDLHFVDRLVFDLQSKLDRIISWGQQSIDLWIGYDRHVHKFIRTAIDMDKNRVFAQRLRQSVQTYFDEPWALTYANADRLLDMRDEEMALRDEEVTGELPED

Source: article PMC5812716 (2018)
